Measured values as given in paper PMC9908967 (Nature Communications, 2023).

B1: 2554_01_D11 Fab (Fab, V domains shown)
VH: QVQLVQSGAEVKKPGSSVKVSCKASGGTFSSYAISWVRQAPGQGLEWMGGIIPIFGTANYAQKFQGRVTITADESTSTAYMELRSLRSDDTAVYYCARDNLGYCSGGSCYSDYYYYYMDVWGQGTLVTVSS
VL: NFMLTQPRSVSESPGKTVTISCTRSSGSIGSDYVHWYQQRPGSSPTTVIYEDNQRPSGVPDRFSGSIDSSSNSASLTISGLKTEDEADYYCQSYDRSNHEVVFGGGTKLTVL
notes: source: Expi293 cells, transient, purified (anti-CH1 resin)
B2: 2555_01_A01 Fab (Fab, V domains shown)
VH: QVQLVQSGAEVKKPGSSVKVSCKASGGTFSSYAISWVRQAPGQGLEWMGGIIPIFGTANYAQKFQGRVTITADESTSTAYMELRSLRSDDTAVYYCARDNLGYCSGGSCYSDYYYYYMDVWGQGTLVTVSS
VL: SYELTQPPSVSVAPGRTATITCEGDNIGQQIVHWYQQKPGQAPVAVISSDSDRPSGIPERFSGSNSGNTATLTISRVEAGDEADYYCQVWDSGSDHVVFGGGTKVTVL
notes: as for B1
B3: 2554_01_D11 IgG (antibody, V domains shown)
VH: QVQLVQSGAEVKKPGSSVKVSCKASGGTFSSYAISWVRQAPGQGLEWMGGIIPIFGTANYAQKFQGRVTITADESTSTAYMELRSLRSDDTAVYYCARDNLGYCSGGSCYSDYYYYYMDVWGQGTLVTVSS
VL: NFMLTQPRSVSESPGKTVTISCTRSSGSIGSDYVHWYQQRPGSSPTTVIYEDNQRPSGVPDRFSGSIDSSSNSASLTISGLKTEDEADYYCQSYDRSNHEVVFGGGTKLTVL
notes: also called IgG 2554_01_D11; copies: 2 + 2

Key:
α-bungarotoxin = biological target: T1, α-bungarotoxin (Bungarus multicinctus, UniProt P60615); experiment: SPR; conditions: both partners purified
T1 construct: source: bought: Latoxan SAS (L8115)

α-cobratoxin = α-cobratoxin (Naja kaouthia (monocled cobra), UniProt P01391); experiment: SPR; BIAcore T100; […]; 10 mM HEPES, 150 mM NaCl, 3 mM EDTA, 0.05% P20, pH 7.4; 40 µL/min; 1:1 Langmuir model, global fit; conditions: both partners purified
α-elapitoxin = α-elapitoxin (Dendroaspis polylepis, UniProt P01396); experiment: as above; conditions: both partners purified
[1] = biological target: T2, long neurotoxin 2 from O. hannah (Ophiophagus hannah, UniProt A8N285); experiment: native MS; conditions: one partner purified
T2 construct: source: in SEC fractions of O. hannah whole venom (Latoxan L1357)

[2] = biological target: T3, long neurotoxin 2 from N. melanoleuca (Naja melanoleuca, UniProt P01388); experiment: native MS; conditions: one partner purified
T3 construct: source: in SEC fractions of N. melanoleuca whole venom (Latoxan L1318)

[3] = biological target: T4, long neurotoxin from N. melanoleuca (Naja melanoleuca, UniProt P0DQQ2); experiment: native MS; conditions: one partner purified
T4 construct: source: in SEC fractions of N. melanoleuca whole venom (Latoxan L1318)

[4] = biological target: long neurotoxin 4 from N. naja (Naja naja, UniProt P25672); experiment: native MS; conditions: one partner purified

| Binder | binding result (α-bungarotoxin) | Kd (α-cobratoxin) | koff (α-cobratoxin) | Kd (α-elapitoxin) | koff (α-elapitoxin) | binding result [1] | binding result [2] | binding result [3] | binding result [4] |
| --- | --- | --- | --- | --- | --- | --- | --- | --- | --- |
| B1 | binds | 1.78 nM | 0.000229 s⁻¹ | 1.69 nM | 0.000177 s⁻¹ | – | – | – | – |
| B2 | – | 8.41 nM | 0.0017 s⁻¹ | 1.81 nM | 0.000181 s⁻¹ | – | – | – | – |
| B3 | – | – | – | – | – | binds | binds | binds | binds |
